{"source": "patent US20150182494A1", "about": "“METHOD OF MANAGING DIABETIC FOOT ULCERS, PRESSURE ULCERS, VENOUS LEG ULCERS AND ASSOCIATED COMPLICATION” (INDUS BIOTECH PRIVATE LIMITED, priority 2012, published 2015)", "origin": "cited, not measured here", "conditions": "patients treated with 3 or more tubes", "data": [{"substance": "becalpermin [Regranex gel]", "values": [{"measurement": "Mortality secondary to malignancy, in words", "value": "increased rate of mortality secondary to malignancy"}]}]}
